Experimental findings from patent publication US20250145729A1 (DENALI THERAPEUTICS, published 2025) are described below.

First the molecules themselves.
B1: 6.5.11.5.42.2.d1 (Fc fusion)
chain: APELLGGPSVFLFPPKPKDTLMISRTPEVTCVVVDVSHEDPEVKFNWYVDGVEVHNAKTKPREEQYNSTYRVVSVLTVLHQDWLNGKEYKCKVSNKALPAPIEKTISKAKGQPREPQVYTLPPSRDELTKNQVSLTCLVKGFYPSDIAVEWFSNGSKETNYKTTPPVLDSDGSFFLYSKLTVDKSRWQQGNLFACEVMHEALHNHYTYKLLSLSPGK
B2: 6.5.11.5.42.2.d2 (Fc fusion)
chain: B1 chain with N154D, S156Q
B3: 6.5.11.5.42.2.d9 (Fc fusion)
chain: B1 chain with N154D, S156A
B4: 6.5.11.5.42.2.d12 (Fc fusion)
chain: B1 chain with N154D, K157P, T159N
B5: 6.5.11.5.42.2.d15 (Fc fusion)
chain: B1 chain with N154F, S156Q
B6: 6.5.11.5.42.2.d8 (Fc fusion)
chain: B1 chain with N154D, G155A
B7: 6.5.11.5.42.2.d11 (Fc fusion)
chain: B1 chain with N154D, T159S
B8: 6.5.11.5.42.2.d14 (Fc fusion)
chain: B1 chain with S156Q
B9: 6.5.11.5.42.2.d7 (Fc fusion)
chain: B1 chain with N154A
B10: 6.5.11.5.42.2.d10 (Fc fusion)
chain: B1 chain with N154D, K157T
B11: 6.5.11.5.42.2.d6 (Fc fusion)
chain: B1 chain with N154F
B12: 6.5.11.5.42.2.d13 (Fc fusion)
chain: B1 chain with N154D, K157P, T159N, L192V
B13: 6.5.11.5.42.2.d4 (Fc fusion)
chain: B1 chain with N154D, S156G
B14: 6.5.11.5.42.2.d3 (Fc fusion)
chain: B1 chain with N154D, K157P
B15: LLB2-10-8.d20 (Fc fusion)
chain: APELLGGPSVFLFPPKPKDTLMISRTPEVTCVVVDVSHEDPEVKFNWYVDGVEVHNAKTKPREEQYNSTYRVVSVLTVLHQDWLNGKEYKCKVSNKALPAPIEKTISKAKGQPREPQVYTLPPSRDELTKNQVSLTCLVKGFYPSDIAVLWSSHYELENNYKTTPPVLDSDGSFFLYSKLTVDKSRWQQGNVFACNVYHEALHNHYTFKNLALSPGK
notes: Fc part only
B16: LLB2-10-8.d30 (Fc fusion)
chain: B15 chain with S152N, H154Q, Y155F
notes: Fc part only
B17: LLB2-10-8.d32 (Fc fusion)
chain: B15 chain with H154Q, Y155F
notes: Fc part only
B18: LLB2-10-8.d21 (Fc fusion)
chain: B15 chain with H154R, Y155F, E156V
notes: Fc part only
B19: LLB2-10-8.d25 (Fc fusion)
chain: B15 chain with S152N, H154R, Y155F, E156Q
notes: Fc part only
B20: LLB2-10-8.d28 (Fc fusion)
chain: B15 chain with H154R, E156V
notes: Fc part only
B21: LLB2-10-8.d29 (Fc fusion)
chain: B15 chain with H154R, Y155F, E156Q
notes: Fc part only
B22: LLB2-10-8.d26 (Fc fusion)
chain: B15 chain with S152N, H154R, Y155F, E156V, L157P
notes: Fc part only
B23: LLB2-10-8.d23 (Fc fusion)
chain: B15 chain with H154Q
notes: Fc part only
B24: LLB2-10-8.d27 (Fc fusion)
chain: B15 chain with S152N, H154R, Y155F, E156Q, L157P
notes: Fc part only
B25: LLB2-10-8.d31 (Fc fusion)
chain: B15 chain with S152N, H154Q, E156Q
notes: Fc part only
B26: LLB2-10-8.d24 (Fc fusion)
chain: B15 chain with S152N, H154R, E156V
notes: Fc part only
B27: LLB2-10-8.d22 (Fc fusion)
chain: B15 chain with H154K, Y155F
notes: Fc part only
B28: 42.2.1.20 mono (Fc fusion)
chain 1: B1 chain with L4A, L5A, P99G, T136W, S153A, N154D, G155A, E158Q, T159R
chain 2: APEAAGGPSVFLFPPKPKDTLMISRTPEVTCVVVDVSHEDPEVKFNWYVDGVEVHNAKTKPREEQYNSTYRVVSVLTVLHQDWLNGKEYKCKVSNKALGAPIEKTISKAKGQPREPQVYTLPPSRDELTKNQVSLSCAVKGFYPSDIAVEWESNGQPENNYKTTPPVLDSDGSFFLVSKLTVDKSRWQQGNVFSCSVMHEALHNHYTQKSLSLSPGK
notes: knob+P329G+LALA with TfR site, hole+P329G+LALA without
B29: 42.2.3.4 mono (Fc fusion)
chain 1: B1 chain with L4A, L5A, P99G, T136W, S153A, N154G, S156G
chain 2: B28 chain 2
notes: as for B28
B30: 42.2.1.2 mono (Fc fusion)
chain 1: B1 chain with L4A, L5A, P99G, T136W, S153Y, N154D, G155D, E158L
chain 2: B28 chain 2
notes: as for B28
B31: 42.2.3.1H mono (Fc fusion)
chain 1: B1 chain with L4A, L5A, P99G, T136W, S153Y, N154G, G155N, S156A
chain 2: B28 chain 2
notes: as for B28
B32: 42.2.3.1C mono (Fc fusion)
chain 1: B1 chain with L4A, L5A, P99G, T136W, S153G, N154T, G155N, S156K
chain 2: B28 chain 2
notes: as for B28
B33: 42.2.3.3 mono (Fc fusion)
chain 1: B1 chain with L4A, L5A, P99G, T136W, S153T, N154D, G155N, S156Y
chain 2: B28 chain 2
notes: as for B28

Changes are numbered by the printed parent chain. Numbers in names are those of the source.

The first assay addresses T1, circularly permuted human TfR apical domain (human).
T1 construct: TfR residues 326-379 stand N-terminal to 194-296, loop 297-325 deleted; also called huTfR Apical Domain
T1 chain: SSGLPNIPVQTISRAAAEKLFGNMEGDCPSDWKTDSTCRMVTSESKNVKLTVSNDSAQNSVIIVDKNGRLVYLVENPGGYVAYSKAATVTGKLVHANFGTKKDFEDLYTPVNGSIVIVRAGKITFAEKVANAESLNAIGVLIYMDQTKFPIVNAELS
The assay can be described thus: Biacore SPR. (Surface plasmon resonance follows binding to a sensor surface in real time, without labels.)
A word on the Kd: it is the free concentration of one partner at which half of the binding sites on the other are occupied at equilibrium, for simple one-to-one binding. B1: binding was put at a Kd of 3600 nM.
The same measure, in the same setting: next, B2: 3500 nM.
On to B3, for which the Kd amounted to 2000 nM.
B4 showed a Kd of 4900 nM.
The molecule B5 came in with a Kd of 2000 nM.
Same read-out and setting: next, B6: 4400 nM.
On the same count and under the same terms, to B7 belongs 1800 nM; to B8, 9400 nM; to B9, 29000 nM.
Still for that read-out and setting: next, B10: 1800 nM.
As for B11, the Kd was 24000 nM.
As for B12, the binding result was “no binding”.
B13 displayed a Kd of 8700 nM.
Molecule B14 registered a Kd of 3500 nM.

For another assay, the target named is T2, human CD98hc (human, UniProt P08195 109-529).
T2 construct: also called huCD98hc; CD98 heavy chain
T2 sequence: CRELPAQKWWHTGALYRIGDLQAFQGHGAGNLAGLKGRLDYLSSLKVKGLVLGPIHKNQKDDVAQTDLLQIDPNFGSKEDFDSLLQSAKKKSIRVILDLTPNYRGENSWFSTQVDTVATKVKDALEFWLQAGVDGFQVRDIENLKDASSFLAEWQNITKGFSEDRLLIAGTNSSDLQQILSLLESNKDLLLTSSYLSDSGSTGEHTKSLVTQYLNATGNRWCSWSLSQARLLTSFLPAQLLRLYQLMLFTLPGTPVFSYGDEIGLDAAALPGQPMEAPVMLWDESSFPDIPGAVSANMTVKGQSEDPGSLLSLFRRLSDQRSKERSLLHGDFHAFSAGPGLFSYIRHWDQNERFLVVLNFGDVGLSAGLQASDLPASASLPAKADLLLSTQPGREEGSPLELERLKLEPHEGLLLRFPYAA
Put plainly: SPR (Biacore). As for the experimental part:
Variants that bound with measurable affinity from this round of engineering are shown in Table A12 and the corresponding human binding affinity by surface plasmon resonance (SPR) using a Biacore™ machine are shown in Table 9B. Cell binding of the clones was also tested in HeLa cells for huCD98hc binding and CHO cells as a negative control.
For the molecule B15, binding was characterised by a dissociation constant (Kd) of 2300 nM.
Still for that read-out and setting: next, B16: 1000 nM; B17: 3100 nM; B18: 2000 nM.
Still for that read-out and setting: next, B19: 670 nM; B20: 4200 nM; B21: 1300 nM.
As to B22, the binding result is “no binding”.
In turn, B23 displayed a Kd of 1800 nM.
In the case of B24, the binding result was “no binding”.
In turn, B25 displayed a Kd of 460 nM.
In turn, B26 had a Kd of 2600 nM.
Still for that read-out and setting: to B27 belongs 5200 nM.

In the next assay the target is T1, circularly permuted human TfR apical …. The assay can be described thus: method not named for this table (Biacore elsewhere).
For B28, the Kd came to 440 nM.
Still for that read-out and setting: next, B29: 181 nM.
As for B30, the Kd amounted to 284 nM.
B31 yielded a Kd of 220 nM.
Same read-out and setting: to B32 belongs 1000 nM; to B33, 360 nM.

A further assay concerns the target T3, circularly permuted cyno TfR apical domain (cynomolgus monkey).
T3 construct: same design as the human construct; also called cyTfR Apical Domain; cynomolgus TfR apical domain
T3 chain: T1 chain with R39K, S45N, N47S, R69G, Y108D, T109S, N153K, E155D
The assay is described as above.
B28 returned a Kd of 7000 nM.
B29 showed a Kd of 4000 nM.
In the case of B30, binding was put at a Kd of 7000 nM.
Still for that read-out and setting: next, B31: 2000 nM; B32: 10000 nM.
For B33, the Kd was determined as 8000 nM.
